Data published in patent publication US20260184782A1 (TWIST BIOSCIENCE, published 2026).

T1: human TIGIT-Fc (human, UniProt Q495A1 22-141, limits assumed)
T1 construct: not shown: Fc; not described
T1 sequence (looked up): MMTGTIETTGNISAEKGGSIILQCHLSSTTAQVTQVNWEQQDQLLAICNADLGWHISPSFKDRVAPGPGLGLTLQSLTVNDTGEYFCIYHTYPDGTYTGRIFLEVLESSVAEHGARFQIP

T2: TIGIT (UniProt Q495A1 22-141, limits assumed)
T2 construct: construct not described; also called T cell immunoreceptor with Ig and ITIM domains
T2 sequence (looked up): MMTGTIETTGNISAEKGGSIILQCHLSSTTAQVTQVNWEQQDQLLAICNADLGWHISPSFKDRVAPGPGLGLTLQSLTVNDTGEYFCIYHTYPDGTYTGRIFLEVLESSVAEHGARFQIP

T3: recombinant human TIGIT (human, UniProt Q495A1 22-141, limits assumed)
T3 construct: also called T cell immunoreceptor with Ig and ITIM domains
T3 sequence (looked up): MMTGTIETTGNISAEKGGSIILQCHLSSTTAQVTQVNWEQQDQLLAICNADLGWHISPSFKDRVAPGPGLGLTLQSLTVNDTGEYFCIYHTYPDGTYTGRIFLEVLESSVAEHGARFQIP


Key:
human TIGIT-Fc [1] = target: T1, human TIGIT-Fc; experiment: CD155 competition ELISA, titration
Procedure: (§1) TIGIT/CD155 inhibition of VHH-Fcs were assessed using an ELISA assay (Table 10B). Briefly, human TIGIT-Fc was coated on a plate & then incubated with VHH-Fcs and human CD155-biotin. Bound CD155-biotin was detected using a streptavidin-HRP conjugate visualized with TMB. Strong inhibitors from the single point screen were titrated to determine EC50 (Table 10C).

human TIGIT-Fc [2] = target: T1, human TIGIT-Fc; experiment: CD155 competition ELISA, single point; also: test concentration or dose not given here
Procedure: as §1

TIGIT [3] = target: T2, TIGIT; experiment: SPR, VHH-V5-His
TIGIT [4] = target: T2, TIGIT; experiment: SPR, VHH-V5-His; unit inferred
recombinant human TIGIT = target: T3, recombinant human TIGIT; experiment: SPR (Carterra), average
Procedure: Binding affinities of VHH-Fc proteins to recombinant human TIGIT were measured by SPR using a Carterra instrument (Table 10A). […] Average values reported from measurements from 1-2 samples.

Binder | EC50 (human TIGIT-Fc [1]) [nM] | OD (450 nm) (human TIGIT-Fc [2]) [OD] | RU (TIGIT [3]) [RU] | Kd (TIGIT [4]) [nM] | also measured
TIGIT-SC82 (Fc fusion, VHH-Fc) VHH: EVQLVESGGGLVQPGGSLRLSCAASGSMSSNYAMGWFRQAPGKEREFVAAIDWSGGNTYYADSVKGRFTISADNSKNTAYLQMNSLKPEDTAVYYCAKWFYYGSGLYTLDVWGQGTLVTVSS | 4.08 | 0.25 | – | – | –
TIGIT-SC83 (Fc fusion, VHH-Fc) VHH: EVQLVESGGGLVQPGGSLRLSCAASGRTFSDDAMGWFRQAPGKEREFVAAISRSGGNTYYADSVKGRFTISADNSKNTAYLQMNSLKPEDTAVYYCAKWFYYGSGLYTLDVWGQGTLVTVSS | 4.36 | 0.241 | – | – | –
TIGIT-SC151 (Fc fusion, VHH-Fc) VHH: EVQLVESGGGLVQPGGSLRLSCAASGFPFSIYPMGWFRQAPGKEREFVAAISASGTLRAYADSVKGRFTISADNSKNTAYLQMNSLKPEDTAVYYCARSSSWVRIFDYWGQGTLVTVSS | 4.14 | 0.206 | – | – | –
TIGIT-30-20 VHH-V5-His (VHH, not shown: V5 and His tags) VHH: EVQLVESGGGLVQAGGSLRLSCAASGPTFSIYDMGWFRQAPGKEREFVAVINWSRGSTFYADSVKGRFTISADNAKNTVYLQMNSLKPEDTAVYYCAAGVWSSLRHTAANWGQGTQVTVSS | – | – | 69 | 195 | –
TIGIT-SC64 (Fc fusion, VHH-Fc) VHH: EVQLVESGGGLVQPGGSLRLSCAASGFAFSNFGMGWFRQAPGKERELVSAIGWSGASTYYADSVKGRFTISADNSKNTAYLQMNSLKPEDTAVYYCARRGRTIPFDYWGQGTLVTVSS | 9.58 | 0.197 | – | – | –
TIGIT-SC67 (Fc fusion, VHH-Fc) VHH: EVQLVESGGGLVQPGGSLRLSCAASGFTFDRSWMGWFRQAPGKEREWVSTIYSNGTPAYADSVKGRFTISADNSKNTAYLQMNSLKPEDTAVYYCARRGLPSYSYGMDVWGQGTLVTVSS | 1.23 | 0.149 | – | – | –
TIGIT-SC152 (Fc fusion, VHH-Fc) VHH: EVQLVESGGGLVQPGGNLRLSCAASGSTFSKHHAMGWFRQAPGKEREFVAGIIRSGTLKAYADSVKGRFTISADNSKNTAYLQMNSLKPEDTAVYYCTRGRAARHNLWYFDLWGQGTLVTVSS | 13.4 | 0.259 | – | – | –
TIGIT-30-43 VHH-V5-His (VHH, not shown: V5 and His tags) VHH: EVQLVESGGGLVQAGGSLRLSCAASGFTFSTSWMGWFRQAPGKERELVAARNSGGNTNYADSVKGRFTISADNAKNTVYLQMNSLKPEDTAVYYCAADVWYGSTWRNWGQGTQVTVSS | – | – | 407 | 107 | –
TIGIT-30-01 VHH-V5-His (VHH, not shown: V5 and His tags) VHH: EVQLVESGGGLVQAGGSLRLSCAASGFAFSSYWMGWFRQAPGKERELVAARNSGGNTNYADSVKGRFTISADNAKNTVYLQMNSLKPEDTAVYYCAADVWYGSTWRNWGQGTQVTVSS | – | – | 664 | 7460 | –
TIGIT-30-40 VHH-V5-His (VHH, not shown: V5 and His tags) VHH: EVQLVESGGGLVQAGGSLRLSCAASGFTFSGNWMGWFRQAPGKEREWVVGISSGGSTHYADSVKGRFTISADNAKNTVYLQMNSLKPEDTAVYYCAADVWYGSTWRNWGQGTQVTVSS | – | – | 113 | 222 | –
TIGIT-29-18 VHH-V5-His (VHH, not shown: V5 and His tags) VHH: EVQLVESGGGLVQAGGSLRLSCAASGSTFSNYAMGWFRQAPGKEREFVSAINSSGSRTYYADSVKGRFTISADNAKNTVYLQMNSLKPEDTAVYYCAARLWGTWTAGDYDYWGQGTQVTVSS | – | – | 157 | 352 | –
TIGIT-29-34 VHH-V5-His (VHH, not shown: V5 and His tags) VHH: EVQLVESGGGLVQAGGSLRLSCAASGFTFRNYAMGWFRQAPGKEREFVSSISSSSSRTSYADSVKGRFTISADNAKNTVYLQMNSLKPEDTAVYYCAARLWGTWTAGDYDYWGQGTQVTVSS | – | – | 167 | 967 | –
TIGIT-29-22 VHH-V5-His (VHH, not shown: V5 and His tags) VHH: EVQLVESGGGLVQAGGSLRLSCAASGSILSSYTMGWFRQAPGKEREFVSTISRSSTRTYYADSVKGRFTISADNAKNTVYLQMNSLKPEDTAVYYCAARLWGTWTAGDYDYWGQGTQVTVSS | – | – | 123 | 500 | –
TIGIT-SC65 (Fc fusion, VHH-Fc) VHH: EVQLVESGGGLVQPGGSLRLSCAASGFTFGNYDMGWFRQAPGKEREFVAAITGSGRSTYYADSVKGRFTISADNSKNTAYLQMNSLKPEDTAVYYCARGRIAASGTKVYWYFDLWGQGTLVTVSS | 4.09 | 0.0846 | – | – | –
TIGIT-30-15 VHH-V5-His (VHH, not shown: V5 and His tags) VHH: EVQLVESGGGLVQAGGSLRLSCAASGFTFSGNWMGWFRQAPGKEREWVSGISSGGGRTYYADSVKGRFTISADNAKNTVYLQMNSLKPEDTAVYYCAADVWYGSTWRNWGQGTQVTVSS | – | – | 66 | 215 | –
TIGIT-SC193 (Fc fusion, VHH-Fc) VHH: EVQLVESGGGLVQPGGSLRLSCAASGFTFSDYWMGWFRQAPGKEREFVAAISRSGTLKAYADSVKGRFTISADNSKNTAYLQMNSLKPEDTAVYYCARGSGWPKIHFDYWGQGTLVTVSS | 4.39 | 0.151 | – | – | –
TIGIT-29-01 VHH-V5-His (VHH, not shown: V5 and His tags) VHH: EVQLVESGGGLVQAGGSLRLSCAASGRTFSNYAMGWFRQAPGKEREFVAAITWSGTRTDYADSVKGRFTISADNAKNTVYLQMNSLKPEDTAVYYCAAAAWTIYEYDYWGQGTQVTVSS | – | – | 88 | 365 | –
TIGIT-29-30 VHH-V5-His (VHH, not shown: V5 and His tags) VHH: EVQLVESGGGLVQAGGSLRLSCAASGFTFSSYAMGWFRQAPGKEREFVAAITWSGTRTDYADSVKGRFTISADNAKNTVYLQMNSLKPEDTAVYYCAAAAWRYSEYDYWGQGTQVTVSS | – | – | 77 | 232 | –
TIGIT-29-12 VHH-V5-His (VHH, not shown: V5 and His tags) VHH: EVQLVESGGGLVQAGGSLRLSCAASGSTFSSYAMGWFRQAPGKEREFVAAITWSGTRTNYADSVKGRFTISADNAKNTVYLQMNSLKPEDTAVYYCAAAAWTIYTYDSWGQGTQVTVSS | – | – | 464 | 8580 | –
TIGIT-29-07 VHH-V5-His (VHH, not shown: V5 and His tags) VHH: EVQLVESGGGLVQAGGSLRLSCAASGSIFSNYAMGWFRQAPGKEREFVATISRGGTRTNYADSVKGRFTISADNAKNTVYLQMNSLKPEDTAVYYCAAAAWTIYAYNYWGQGTQVTVSS | – | – | 26 | 465 | –
TIGIT-29-33 VHH-V5-His (VHH, not shown: V5 and His tags) VHH: EVQLVESGGGLVQAGGSLRLSCAASGFIFSTYAMGWFRQAPGKERELVSAITRSGITTYYADSVKGRFTISADNAKNTVYLQMNSLKPEDTAVYYCAAAAWTIYEYDYWGQGTQVTVSS | – | – | 202 | – | –
TIGIT-30-52 VHH-V5-His (VHH, not shown: V5 and His tags) VHH: EVQLVESGGGLVQAGGSLRLSCAASGRTFSNYFMGWFRQAPGKERESVATVTWRDNITYYADSVKGRFTISADNAKNTVYLQMNSLKPEDTAVYYCASAGRWGQGTQVTVSS | – | – | 270 | – | –
TIGIT-30-49 VHH-V5-His (VHH, not shown: V5 and His tags) VHH: EVQLVESGGGLVQAGGSLRLSCAASGNIFSRYIMGWFRQAPGKEREWVAGISNGGTTKYADSVKGRFTISADNAKNTVYLQMNSLKPEDTAVYYCAQGWKIVPTNWGQGTQVTVSS | – | – | 99 | 945 | –
TIGIT-SC135 (Fc fusion, VHH-Fc) VHH: EVQLVESGGGLVQPGGSLRLSCAASGFAFGDSWMGWFRQAPGKEREWVASVLRGGTLRAYAVSVKGRFTISADNSKNAAYLQMNSLKPEDTAVYYCARASIVGTTTLVWGQGTLVTVSS | – | 0.827 | – | – | Kd (recombinant human TIGIT): 1670 nM; koff (recombinant human TIGIT): 0.21 s⁻¹; kon (recombinant human TIGIT): 126000 M⁻¹ s⁻¹
TIGIT-SC149 (Fc fusion, VHH-Fc) VHH: EVQLVESGGGLVQPGGSLRLSCAASGFTLENNMMGWFRQAPGKEREFVAAISRSGTLKAYADSVKGRFTISADNSKNTAYLQMNSLKPEDTAVYYCAKVQGPYCSGGSCYLYTFDLWGQGTLVTVSS | 11.9 | 0.263 | – | – | –
TIGIT-29-10 VHH-V5-His (VHH, not shown: V5 and His tags) VHH: EVQLVESGGGLVQAGGSLRLSCAASGRTFSNYGMGWFRQAPGKEREFVSGISGSGGRTSYADSVKGRFTISADNAKNTVYLQMNSLKPEDTAVYYCAANLWYPVDRLNTGFNYWGQGTQVTVSS | – | – | 36 | 323 | –
TIGIT-29-06 VHH-V5-His (VHH, not shown: V5 and His tags) VHH: EVQLVESGGGLVQAGGSLRLSCAASGGTFRSYVMGWFRQAPGKEREWVATINSSGSRTYYADSVKGRFTISADNAKNTVYLQMNSLKPEDTAVYYCAARPNYRDYEYWGQGTQVTVSS | – | – | 26100 | – | –
TIGIT-30-30 VHH-V5-His (VHH, not shown: V5 and His tags) VHH: EVQLVESGGGLVQAGGSLRLSCAASGGTFSGRGMGWFRQAPGKEREWVSSVYIFGGSTYYADSVKGRFTISADNAKNTVYLQMNSLKPEDTAVYYCANSNKPKFDWGQGTQVTVSS | – | – | 3 | – | –
